# Experimental data from the nanobody polyreactivity screen of Harvey et al. (2022).
# Assay: yeast display, Sf9 membrane polyspecificity reagent, FACS + sequencing; frameworks hold sequencing errors
# How it was run: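 Nanobodies from a synthetic yeast display library (Saccharomyces cerevisiae BJ5465), induced 36–48 hours with galactose, were stained 1 hour at 4 °C with 10% biotinylated, detergent-solubilized Sf9 membrane reagent, enriched on streptavidin microbeads, then FACS-sorted. Anti-HA (expression) and streptavidin (reagent binding) fluorescence set low and high (top ~1%) gates. Polyreactivity labels come from the gate of origin. Genes were colony-PCR amplified, MiSeq 2 × 250 sequenced and filtered by CDR length.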
row,Sequence,polyreactivity (PSR sort gate)
1,QVQLVESGGGLVQAGGSLRLRCAASGFIFRHNAMGWYRQAPGKAREFVAAISISGGSTYYADSVKGRFTISRDNAKNTVYLQMNSLKPEDTAVYYCNARSMGNTYLLYDYWGQGTQVTFSS,low polyreactivity
2,QVQLVESGGGLVQAGGSLRLRCAASGFIFVAYAMGWYIQAPGKERELVAAISWSGGSTYADSVKGRFTISRHNAKNTVYLQMNSLKPEDTAVYYCDARTSPIKTNNWYSQRYDSWGQGTQVTVSS,low polyreactivity
3,QVQLVESGGGLVQAGGSLRLRCAASGFIYLKYDMGWYRQAPGKERELVDRITSTGGSTYYADSVKGRFTISRDNAKNTVYLQMNSLKPEDTAVYYCAAVYISRNFFGRARGDYWGQGTQVTVSS,low polyreactivity
4,QVQLVESGGGLVQAGGSLRLRCAASGFTFFAYALGWYRQAPGKESELVAGISRSGGRTYYADSVKWRFTISRDNAKNTVYLQMNSLKPEDTAVYYCAAGIPVTSRHLGYWGQGTQVTVSS,high polyreactivity
5,QVQLVESGGGLVQAGGSLRLRCAASGFTFGAYAMGWYRQAPGKERELVATIDWRGSSTYYADSVKGRFTISRDNAKNTVYLQMNSLKPEDTAVYYCAARLARGSYAYEYWGQGTQVTVSS,low polyreactivity
6,QVQLVESGGGLVQAGGSLRLRCAASGFTFRFYAMGWYRQAPGKERELVAAISSTGIRTYYADSVKGRFTISRDNAKNTVYLQMNSLKPEDTAFYYCAILHRDSILDYWGQGTQVTVAS,high polyreactivity
7,QVQLVESGGGLVQAGGSLRLRCAASGFTFTRYAMGWYRQAPGKERELVAVITSTAGSTYYADSVKGRFTISRDNAKNTVYLQMNSLKPEDTAVYYCAAESLVHGDVTLEEVVAQSYDYWGQGTQVTVSS,low polyreactivity
8,QVQLVESGGGLVQAGGSLRLRCAASGGIFGRYAMGWNRQAPGKERELVAAISSRGGSTYYADSVKGRFTISRDNAKNTVYLQMNSLKPEDTAVYYCNALWVSYYTFRMDYWGQGTQVTVSS,high polyreactivity
9,QVQLVESGGGLVQAGGSLRLRCAASGIIFEYYAMGLYRQAPGKERELVAAITRGGTTYYADSVKGRFTISRDNAKNTVYLQMNSLKPEDTAVYYCNADSVAYGDEYDFWGQGTQVTVSS,low polyreactivity
10,QVQLVESGGGLVQAGGSLRLRCAASGITFKTYAMGWYRQAPGKERELVATINRGSRTNYADSVKGRFTISRDNAKNTVYLKMNSLKPEDTAVYYCAAHYTTFIPSPDGDYLGQGTQVTVSS,low polyreactivity
11,QVQLVESGGGLVQAGGSLRLRCAASGITFRYYAMGWYRQAPGQERELVAAITRSGSTTYADSVKGRFTISRDNAKNTVYLQLNSLKPEDTAVYYCAVDYYYLTGGVDYWGQGTQVTVSS,low polyreactivity
12,QVQLVESGGGLVQAGGSLRLRCAASGITLVDYAMGWNRQAPGKERELVAAITTGGSTNYADSVKGRFTISRDNAKNTVYLQINSLKPEDTAVYYCNKRAVILYDYWGQGTQVTVSS,low polyreactivity
13,QVQLVESGGGLVQAGGSLRLRCAASGLIFPYNAMGWYRQAPGKERELVAAIDTRGSSTYYADSVKGRFTISRDNAKNTVYLQMNSLKPEDSAVYYCNARTGRSPTGFRYWGQGTEVTVSS,high polyreactivity
14,QVQLVESGGGLVQAGGSLRLRCAASGRIFGLYAMGWYRQAPGKERQLVAAISRGGGSTYYADSVKGRFTISRDNAKNTVYLQMNSLNPEDTEVYYCATGLGYFSRLDYCGQGTQVTVSS,low polyreactivity
15,QVQLVESGGGLVQAGGSLRLRCAASGRIFGRNAMGWYRQAPGKERELVATISSGDTTDYADSVKGRFTISRDNAKNTVYLQMNSLKPEDTAVYYITIYNYWGQGTQVTVSS,low polyreactivity
16,QVQLVESGGGLVQAGGSLRLRCAASGRIFRIYPMGWYRQAPGKERELVARITYSGGSTYYADSVKGRFTISRDNAKNTVYLQMNSLKPEDTAVYYCAADWLGYQYGYWGQGTQVTVSS,low polyreactivity
17,QVQLVESGGGLVQAGGSLRLRCAASGRTFLPYAMGWSRQAPGKVRVLVAAIDSSGTSTYYADSVKGRFTISRDNAKNTVYLQMNSLKPEDTAVYYCAKAWPDHWYSRYDYWGQGTQVTVSS,low polyreactivity
18,QVQLVESGGGLVQAGGSLRLRCAASGRTFSSNAMGWYRQAPGKERELVASISRRGGSTYYADSVKGRFTISRDNAKNSVYVQMNSLKPEDTAVYDCAARQSGQILGYYSRYDYWGQGTQVTVSS,high polyreactivity
19,QVQLVESGGGLVQAGGSLRLRCAASGRTFTAYTMGLYRQAPGKEREFVASISSGVTYADSVKGRFTISRDNAKITVYLQMNSLKPEDTAVYYCAARLWYVQGYVPYVHHRFDYWGQGTQVTVSS,low polyreactivity
20,QVQLVESGGGLVQAGGSLRLRCAASGSIFARNAMGWYRQAPGKERELVASITWSGASTFYADSVKGRFTISRDNAKYTVYLQMNSLKPDVTAVYYCAATDQKLSLDYSSYEYWGQGSQVTVSS,low polyreactivity
21,QVQLVESGGGLVQAGGSLRLRCAASGSIFIRYAMGWYRQAPGKERELVAVISGRGVRTNYADSVKGRFTIARDTAKNPVYLQMNSLKPEDTAVYYCAVRYYGKQLGPGVRYTYNYLGQGTQVTVSS,high polyreactivity
22,QVQLVESGGGLVQAGGSLRLRCAASGSIFWPYAMGWYRQAPGKERELVAGISSGGSTYYADSVKGRFTISRDNAKNTDYLQMNSLKPEDTAVYYCAARWQWLNGYYYWGQGSQVTVSS,high polyreactivity

row,Sequence,polyreactivity (PSR sort gate)
1,QVQLVESGGGLVQAGGSLRLRCAASGSIFYRNAMGWYRQAPGTERELVAAISSDGSTNYADSVKGRFSISRDNAKNTVYLQMNSLKPEDTAVYYCNADYVQQVAKYQYGYEYGYWGQGTQVTVSS,low polyreactivity
2,QVQLVESGGGLVQAGGSLRLRCAASGSTFEMYAMGWYRQEPGKERELVAAITWDTDSTYYADSVKGRFTISRDNAKNTVYLQMNSLKPEDTAVYYCNSQSGRASHYRGYGFDYWGQGTQVTVSS,high polyreactivity
3,QVQLVESGGGLVQAGGSLRLRCAASGSTFGRNTMGWYRQAPGKERELVAAISKSGGYTRYADSVKGRFTISRDNAKNTVYLQMNSLKPEDTAVYYCAARVYSLGYGGDYWGQGTQVTVSS,high polyreactivity
4,QVQLVESGGGLVQAGGSLRLRCAASGSTFSEYAMGWYRQAPGKERELVAAISYNGGSTYYADSVKGRFTISRDNAKNTVYLQMNSLKPEDTAVYYCNAKLFYDRYDYWGQGTQVTVSS,low polyreactivity
5,QVQLVESGGGLVQAGGSLRLRCAASGSTFTYNTMGWYRQAPGKERELVAAINTTGNTYADSVKGRFTISRDNAKNTVYLQMNSLKPEDTAVYYCNTDYVPRRHDMDYWGQGTQVTLSS,low polyreactivity
6,QVQLVESGGGLVQAGGSLRLRCAASGSTFVRYAMGWYREAAGKEMELVAAISSRGGSTYYADSVKGRFTISRDNAKNTVYLQMNSLKPEDTAVYYCNAAAFINFMLYDYWGQGTQVTVSS,high polyreactivity
7,QVQLVESGGGLVQAGGSLRLRCAASGSTFYIYAMGWYRPAPGKERELVARISGSGGSTYYADSVKGRFTISRDNAKNTVYLQMNSLKPEDTSVYSCAAQRRVVGRHGLSLIRYDYWGQGTQVTVSS,low polyreactivity
8,QVQLVESGGGLVQAGGSLRLRCAASGSTSWSNPMGWYRQAPGKERELVAAITTGASTYYADSVKGRFTISRDNAKNTVYLQMNSLKPEDTAVYYCAADPWVLWSYYYWGQGTQVTVSS,low polyreactivity
9,QVQLVESGGGLVQAGGSLRLRCAASGTFYLYAMGWYRQAPWKQRELVAAISGSGSTNYADSVKGRFTISRDNAKNTVYLQMNSLKPEDTAVYYCAAYQRYDSLTGARYEYDYWGQGTQVTVSS,low polyreactivity
10,QVQLVESGGGLVQAGGSLRLRCAASGYTFKHYTMGWYREAPGKERELVAAISRRGGRTYYADSVKGRFTISRDNAKNTVYLQMNSLKPEDTAVYYCNRVPRARKGDYWGQGTQVTVSS,high polyreactivity
11,QVQLVESGGGLVQAGGSLRLRCAASGYTLTPYTMGWYRQAPGKERELVAAINRSGGSTYYADSVKGRFTISRDNAKNTVYLQMNSLKPEDTAVYYCAAYGYYNFGYYYWGQGTQVTVSS,high polyreactivity
12,QVQLVESGGGLVQAGGSLRLRCAASRRTLGVYALGWYRQAPGKERELVATITAGGSITSYADSVKGRFTISRDNAKNTVYLQMNTLKPEDTAVYYCAAEQGCSVLYDSWGQGTQVTVSS,low polyreactivity
13,QVQLVESGGGLVQAGGSLRLRCAASVRIFRVYAMGRYSQAPGKERELVAAISSSGGSTYYADSVKGRFTMSRDNAKNTDYLQMNSLKPEDTAVYYCAAGGLHTIQRPGYYYWGQGTQVTVSS,low polyreactivity
14,QVQLVESGGGLVQAGGSLRLRCAPSGFIFIFNAMGWYRQAPGKERELVAAIDTSDDSTYYADSVKGRFTISRDNAKNTVYLQMNSLKPEDTAVYYCAAEELSNYEYWGQGTQVTVSS,low polyreactivity
15,QVQLVESGGGLVQAGGSLRLRCASSGGIFYLNAMGWYRQAPGKERELVAAITGTGGNTYYADSVKGRFTISRDNAKNTVYLQMNSLKPEDTGVYYCNVSSRRLRGLDYWGQGTQVSVSS,low polyreactivity
16,QVQLVESGGGLVQAGGSLRLRCASSGRNFVPYAMGGDRQAPGTEREFVAAISRSGGSTHYADSVKGRFTISRDNAKNTVYLQMNSLKPEDTAVYYCAADYDLWLWSGYYWGQGTQVTVSS,high polyreactivity
17,QVQLVESGGGLVQAGGSLRLRCASSGYIFTYYAMGWYRQAPGKERELVAAISWSGGRTYYADSVKGRFTISRDNAKITVYLQMNSLKPEDTAVYYCNAVDKRYPDMDYWGQGTQVTVSS,high polyreactivity
18,QVQLVESGGGLVQAGGSLRLRCGASGRTFSSNAMGWYRQAPGKERELVAVITRRGGSTYYADSVKGLFTISRDNAMNNVYLQMNSLKPEDTAVYYCATVAPPQRSGRRSAGEKYYYWGQGTQVTVSS,high polyreactivity
19,QVQLVESGGGLVQAGGSLRLRCSASGSTIKDYTMGLYRQAPGKERELVAAITDSGGSTYYADSVKGRFTISRDNAKNTVYLQMNSLTPEDTAVYFCAAAVPELYEVRYHDDYWGQGTQVTVSS,low polyreactivity
20,QVQLVESGGGLVQAGGSLRLRGAASGSIFSSNAKGWCRPAPGKERELVAAICRSGGDTYYADSVKGRFTISRDNAKNTVYLQMNSLKPVDTAVYYCAARNSYGGPTYEHYYWGQGTQVSVSS,high polyreactivity
21,QVQLVESGGGLVQAGGSLRLRSAASGIILGKYAMGWYRQAPGKERELVAAISGRGGRTYYADSVKGRFTISRDNAKNTVYLQMNSLKQEDTAVYYWWGQGTQVTVSS,low polyreactivity
